The values below come from PMC8263569.

The target in this experiment is P622-G772A/S773A (ADGRG2-P622 with G772 and S773 of the ECL2 changed to alanine) (human) (UniProt Q8IZP9).
Sequence of UniProt Q8IZP9 (Q8IZP9 622-1017 G772A/S773A): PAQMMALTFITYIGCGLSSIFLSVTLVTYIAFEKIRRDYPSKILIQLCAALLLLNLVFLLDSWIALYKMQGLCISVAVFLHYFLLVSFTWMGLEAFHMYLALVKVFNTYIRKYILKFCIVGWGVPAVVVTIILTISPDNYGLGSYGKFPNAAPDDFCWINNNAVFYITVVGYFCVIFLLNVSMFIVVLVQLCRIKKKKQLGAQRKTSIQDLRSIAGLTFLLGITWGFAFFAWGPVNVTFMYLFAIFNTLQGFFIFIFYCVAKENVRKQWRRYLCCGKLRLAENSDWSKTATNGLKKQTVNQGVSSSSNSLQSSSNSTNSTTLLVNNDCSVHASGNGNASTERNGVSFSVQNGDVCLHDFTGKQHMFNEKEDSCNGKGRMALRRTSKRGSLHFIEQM

“synthetic P-15 (15-amino acid long Stachel peptide of ADGRG2)”: the CRE-luciferase reporter response to P-15, reduction against P622-CWI came to 30% and the SRE-luciferase reporter response to P-15, reduction against P622-CWI came to 40%.
